B1: HDV Ribozyme (parent)
chain: GGCCGGCAUGGUCCCAGCCUCCUCGCUGGCGCCGGCUGGGCAACAUUCCGAGGGGACCGUCCCCUCGGUAAUGGCGAAUGGGACCCA

Variants of: B1
Assay: self-cleavage, relative activity (ratio to wild type); higher = more cleavage; co-transcriptional
GGCCGGCAUGGUCCCAGCCUCCUCGCUGGCGCCGGCUGGCCAACAUUCCGCGGGGACCGUCCCCUCGGUAAUGGCGAAUGGGACCCA [G40C A51C] showed a self-cleavage of 0.111.
In the case of GGCCGGCAUGGUCCCAGCCUCCUCGCUGGCGCCGGCUGGCCAACAUUCCGAGGGGACCGUCCUCUCGGUAAUGGCGAAUGGGACCCA [G40C C63U], the self-cleavage is reported as 0.409.
With GGCCGGCAUGGUCCCAGCCUCCUCGCUGGCGCCGGCUGGCCAACAUUCCGAGGGGACCGUCCCCUCUGUAAUGGCGAAUGGGACCCA [G40C G67U] the self-cleavage was 0.323.
With GGCCGGCAUGGUCCCAGCCUCCUCGCUGGCGCCGGCUGGCCAACAUUCCGAGGGGACCGUCCCCUCGGUAAUGGCCAAUGGGACCCA [G40C G76C] the self-cleavage was 0.197.
Variant GGCCGGCAUGGUCCCAGCCUCCUCGCUGGCGCCGGCUGGCCAACAUUCCGAGGGGACCGUCCCCUGGGUAAUGGCGAAUGGGACCCA [G40C C66G] has a self-cleavage of 0.253.
With GGCCGGCAUGGUCCCAGCCUCCUCGCUGGCGCCGGCUGGCCAACAUUCCGAGGGGACCGUCCCCUAGGUAAUGGCGAAUGGGACCCA [G40C C66A] the self-cleavage was 0.282.
With GGCCGGCAUGGUCCCAGCCUCCUCGCUGGCGCCGGCUGGCCAACGUUCCGAGGGGACCGUCCCCUCGGUAAUGGCGAAUGGGACCCA [G40C A45G] the self-cleavage was 0.32.
Variant GGCCGGCAUGGUCCCAGCCUCCUCGCUGGCGCCGGCUGGCCAACUUUCCGAGGGGACCGUCCCCUCGGUAAUGGCGAAUGGGACCCA [G40C A45U] has a self-cleavage of 0.211.
GGCCGGCAUGGUCCCAGCCUCCUCGCUGGCGCCGGCUGGCCAACAUUCCGAGGGGACCGUCCCCUCGGUAAUGCCGAAUGGGACCCA [G40C G74C] showed a self-cleavage of 0.0652.
In the case of GGCCGGCAUGGUCCCAGCCUCCUCGCUGGCGCCGGCUGGCCGACAUUCCGAGGGGACCGUCCCCUCGGUAAUGGCGAAUGGGACCCA [G40C A42G], the self-cleavage is reported as 0.196.
For GGCCGGCAUGGUCCCAGCCUCCUCGCUGGCGCCGGCUGGACAACAUUCCGAGGGGACCGUCCCCUCGGUAAGGGCGAAUGGGACCCA [G40A U72G], the self-cleavage was 0.437.
GGCCGGCAUGGUCCCAGCCUCCUCGCUGGCGCCGGCUGGCCAACAUUCCGAGGGGAGCGUCCCCUCGGUAAUGGCGAAUGGGACCCA [G40C C57G] showed a self-cleavage of 0.36.
For GGCCGGCAUGGUCCCAGCCUCCUCGCUGGCGCCGGCUGGCCAACAUUCCGAGGGGAUCGUCCCCUCGGUAAUGGCGAAUGGGACCCA [G40C C57U], the self-cleavage was 0.354.
For GGCCGGCAUGGUCCCAGCCUCCUCGCUGGCGCCGGCUGGCCAACAUUCCGAGGGGAACGUCCCCUCGGUAAUGGCGAAUGGGACCCA [G40C C57A], the self-cleavage was 0.295.
Work on GGCCGGCAUGGUCCCAGCCUCCUCGCUGGCGCCGGCUGGCCAACAUUCCGAGGGGACCGUCUCCUCGGUAAUGGCGAAUGGGACCCA [G40C C62U] yielded a self-cleavage of 0.324.
With GGCCGGCAUGGUCCCAGCCUCCUCGCUGGCGCCGGCUGGCCAACAUUCCGAGGGGACCGUCCCCUCGGUAAUGGCGCAUGGGACCCA [G40C A77C] the self-cleavage was 0.151.
In the case of GGCCGGCAUGGUCCCAGCCUCCUCGCUGGCGCCGGCUGGCCAACAUUCCGAGGGGACCGUCCCCUCGGUAAUGGCGGAUGGGACCCA [G40C A77G], the self-cleavage is reported as 0.271.
With GGCCGGCAUGGUCCCAGCCUCCUCGCUGGCGCCGGCUGGCCAACAUUCCGAGGGGACCGUCCCCUCGGUAAUGGCGAAUGGGUCCCA [G40C A83U] the self-cleavage was 0.
Variant GGCCGGCAUGGUCCCAGCCUCCUCGCUGGCGCCGGCUGGCCAACAUUCCGAGGGGACCGUCCCCUCGCUAAUGGCGAAUGGGACCCA [G40C G68C] has a self-cleavage of 0.177.
With GGCCGGCAUGGUCCCAGCCUCCUCGCUGGCGCCGGCUGGCCAACAUUCCGAGGGGACCGUUCCCUCGGUAAUGGCGAAUGGGACCCA [G40C C61U] the self-cleavage was 0.192.
In the case of GGCCGGCAUGGUCCCAGCCUCCUCGCUGGCGCCGGCUGGCCAACAUUCCGAGGGGACCGUCCCCUCGGUAAUGGCGAAUGGGACCAA [G40C C86A], the self-cleavage is reported as 0.363.
In the case of GGCCGGCAUGGUCCCAGCCUCCUCGCUGGCGCCGGCUGGCCAACAUUCCGAGGGGACCGUCCCCUCGGUAAUGGCGAAUAGGACCCA [G40C G80A], the self-cleavage is reported as 0.0723.
Work on GGCCGGCAUGGUCCCAGCCUCCUCGCUGGCGCCGGCUGGCCAACAUUCCGAGGGGACCGUCCCCUCGGUAAUGGCGAAUUGGACCCA [G40C G80U] yielded a self-cleavage of 0.0817.
Variant GGCCGGCAUGGUCCCAGCCUCCUCGCUGGCGCCGGCUGGCCAGCAUUCCGAGGGGACCGUCCCCUCGGUAAUGGCGAAUGGGACCCA [G40C A43G] has a self-cleavage of 0.136.
With GGCCGGCAUGGUCCCAGCCUCCUCGCUGGCGCCGGCUGGCCAACAUUCCGAGGCGACCGUCCCCUCGGUAAUGGCGAAUGGGACCCA [G40C G54C] the self-cleavage was 0.343.
With GGCCGGCAUGGUCCCAGCCUCCUCGCUGGCGCCGGCUGGCCAACAUUCCGAGGGGACUGUCCCCUCGGUAAUGGCGAAUGGGACCCA [G40C C58U] the self-cleavage was 0.354.
With GGCCGGCAUGGUCCCAGCCUCCUCGCUGGCGCCGGCUGGCCAACAUUCGGAGGGGACCGUCCCCUCGGUAAUGGCGAAUGGGACCCA [G40C C49G] the self-cleavage was 0.261.
For GGCCGGCAUGGUCCCAGCCUCCUCGCUGGCGCCGGCUGGCCAACAUUCCGAGGGGACCGUCCCCUCGGUAAUGGCGAAUGGGACGCA [G40C C85G], the self-cleavage was 0.16.
Work on GGCCGGCAUGGUCCCAGCCUCCUCGCUGGCGCCGGCUGGCCAACAUUCCGAGGGGACCGUCCCCUCGGUAAUAGCGAAUGGGACCCA [G40C G73A] yielded a self-cleavage of 0.223.
With GGCCGGCAUGGUCCCAGCCUCCUCGCUGGCGCCGGCUGGCCAACAUUCCGAGGGGACCGUCCCCUCGGUAAUCGCGAAUGGGACCCA [G40C G73C] the self-cleavage was 0.185.
GGCCGGCAUGGUCCCAGCCUCCUCGCUGGCGCCGGCUGGACAACAUUCCGAGGGGACCGUCCCCUCGGGAAUGGCGAAUGGGACCCA [G40A U69G] gave a self-cleavage of 0.712.
Variant GGCCGGCAUGGUCCCAGCCUCCUCGCUGGCGCCGGCUGGCCAACACUCCGAGGGGACCGUCCCCUCGGUAAUGGCGAAUGGGACCCA [G40C U46C] has a self-cleavage of 0.117.
